According to patent US20250215048A1 (MACFARLANE BURNET INSTITUTE FOR MEDICAL RESEARCH AND PUBLIC …, published 2025):

Assays:
[1] = target: Con1 HMW1 Δ123 (hepatitis C virus genotype 1b, strain Con1) (UniProt Q9WMX2); test: direct ELISA on coated antigen; ratio of curve mid-points
[2] = target: H77c HMW1 Δ123 (hepatitis C virus genotype 1a, strain H77c) (UniProt P27958); test: as above
[3] = target: S52 HMW1 Δ123 (hepatitis C virus genotype 3a, strain S52); test: as above
[4] = target: T1, dimeric maltose binding protein (MBP)-CD81-LEL113-201 (UniProt P60033 113-201); test: sandwich ELISA, MBP-CD81-LEL coated, anti-HIS detection
T1 construct: range 113-201; Coated on ELISA plates; The order of the parts follows the printed name, and no linker is stated; also called recombinant CD81
T1 sequence: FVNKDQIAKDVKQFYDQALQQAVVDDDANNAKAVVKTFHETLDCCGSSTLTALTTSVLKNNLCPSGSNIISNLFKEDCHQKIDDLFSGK

Row | Molecule | binding to HMW1 Δ123 relative to H77c HMW1 Δ123 [1] [fold] | binding to HMW1 Δ123 relative to monomeric Δ123 of corresponding strain [1] [fold] | binding to HMW1 Δ123 relative to monomeric Δ123 of corresponding strain [2] [fold] | binding to HMW1 Δ123 relative to H77c HMW1 Δ123 [3] [fold] | binding to HMW1 Δ123 relative to monomeric Δ123 of corresponding strain [3] [fold] | binding result [4]
1 | CBH-4B (antibody) | < 1 | < 0.24 | < 0.27 | < 1 | < 0.62 | –
2 | HC-11 (antibody) | 6.97 | 0.28 | 0.21 | 1 | < 0.2 | –
3 | CBH-4D (antibody) | < 1.23 | < 0.11 | < 0.27 | < 1.68 | < 0.07 | –
4 | AR3B (antibody) | < 6.58 | 0.17 | < 0.37 | < 1.68 | < 0.09 | –
5 | AR3C (antibody) | 3.92 | 0.13 | 0.18 | 6.17 | 0.54 | –
6 | AR3D (antibody) | 4.73 | 0.08 | < 0.17 | – | – | –
7 | HCV1 (antibody) | 2.05 | 1.46 | 1.21 | 2.08 | 0.92 | –
8 | Con1 Δ123 glycoproteins, unfractionated (cell culture supernatant and TALON eluate) (other, Mixture of monomers, dimers and HMW forms as secreted by FS293F cells) GTYGSSGQLVNTNGSWHINRTALNCNDSLNTGFLAALFYVHKFNSSGCPERMASCGSSGCWHYAPRPCGIVPAAQVCGPVYCFTPSPVVVGTTDRFGVPTYSWGENETDVLLLNNTRPPQGNWFGCTWMNSTGFTKTCGGPPCGSSGCPTDCFRKHPEATYTKCGSGPWLTPRCLVHYPYRLWHYPCTVNFTIFKVRMYVGGVEHRLEAACNWTRGERCNLEDRDRSEHHHHHH | – | – | – | – | – | binds
9 | S52 Δ123 glycoproteins, unfractionated (cell culture supernatant and TALON eluate) (other, Mixture of monomers, dimers and HMW forms as secreted by FS293F cells) ETHQKLQLVNTNGSWHINSTALNCNESINTGFIAGLFYYHKFNSTGCPQRLSSCGSSGCWHYAPRPCSVVPASSVCGPVYCFTPSPVVVGTTDIKGKPTYNWGENETDVFLLESLRPPSGRWFGCAWMNSTGFLKTCGAPPCGSSGCPTDCFRKHPEATYSRCGAGPWLTPRCMVDYPYRLWHYPCTVNFTLFKVRMFVGGFEHRFTAACNWTRGERCNIEDRDRSEHHHHHH | – | – | – | – | – | binds
